Measurements: PMC5677552 (Traffic (Copenhagen, Denmark), 2017)

Columns and labels:
[1] = biological target: T1, GST-nup42-CTD/MBP-gle1-CTD^H337R/dbp5^L327V trimeric complex (Saccharomyces cerevisiae, UniProt P20449+Q12315, P20449:L327V/Q12315:H337R); assay: GST pull-down, IP6-dependent complex formation; assay type: binding; conditions: 50 uM IP6, pH 7.5, 4 C; indirect read-out by complex formation
T1 sequence (Q12315 244-538 H337R): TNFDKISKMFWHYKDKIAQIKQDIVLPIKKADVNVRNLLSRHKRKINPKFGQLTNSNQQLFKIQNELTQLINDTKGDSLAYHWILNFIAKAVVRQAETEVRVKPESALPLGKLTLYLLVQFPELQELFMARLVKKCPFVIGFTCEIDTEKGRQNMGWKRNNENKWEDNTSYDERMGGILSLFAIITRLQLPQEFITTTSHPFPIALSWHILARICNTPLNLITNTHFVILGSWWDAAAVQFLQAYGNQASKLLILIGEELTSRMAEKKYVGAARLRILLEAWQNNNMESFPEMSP
T1 sequence (P20449 1-482 L327V): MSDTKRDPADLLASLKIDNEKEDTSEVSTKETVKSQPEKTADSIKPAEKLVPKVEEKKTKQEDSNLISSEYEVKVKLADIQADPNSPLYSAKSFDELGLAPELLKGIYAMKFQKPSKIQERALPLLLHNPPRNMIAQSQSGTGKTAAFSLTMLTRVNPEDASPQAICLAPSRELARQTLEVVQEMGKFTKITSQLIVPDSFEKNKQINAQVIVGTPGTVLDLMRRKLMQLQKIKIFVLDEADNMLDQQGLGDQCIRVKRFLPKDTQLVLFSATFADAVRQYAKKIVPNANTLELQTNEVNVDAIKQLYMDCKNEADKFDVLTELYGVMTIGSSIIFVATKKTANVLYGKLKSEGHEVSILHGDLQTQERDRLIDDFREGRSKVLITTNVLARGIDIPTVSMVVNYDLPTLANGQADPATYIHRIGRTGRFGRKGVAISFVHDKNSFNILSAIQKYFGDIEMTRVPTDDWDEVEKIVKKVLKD
T1 sequence (P49686 365-430 partner): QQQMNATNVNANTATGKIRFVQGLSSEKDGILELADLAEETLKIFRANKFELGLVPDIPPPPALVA

[2] = biological target: biotin-nup42^408–424 peptide (S. cerevisiae) (UniProt P49686); assay: BLI

| Molecule | GST pull-down, IP6-dependent complex formation (SDS-PAGE) [1] | Kd [2] [nM] |
| --- | --- | --- |
| O=P(O)(O)O[C@H]1[C@H](OP(=O)(O)O)[C@@H](OP(=O)(O)O)[C@H](OP(=O)(O)O)[C@@H](OP(=O)(O)O)[C@H]1OP(=O)(O)O [IP6] | complex was observed only in the presence of IP6 | – |
| MBP-gle1-CTD (from UniProt Q12315 1-538) (domain or fragment) | – | 91.5 |
| MBP-gle1-CTD^QKEE>AAAA (from UniProt Q12315 1-538) (domain or fragment) | – | 599 |
